# Patent US20190177434A1
# Target: Human IgG, Fc fragment (human)
# Assay: method not given
row,Binder,Ka
1,IgG-Fc-14 (VHH) VHH: QVQLQESGGGLVQTGGSLRLSCSASGGTFETYAMGWFRQAPGKEREFVGSTNWKSERTYVADSVKGRFTISRDNGQYTAYLQMTSLKPEDTAVYFCVARSFGTGQWDYWGQGTQVTVSS,> 4e+09 M⁻¹
2,IgG-Fc-15 (VHH) VHH: QVQLQESGGGLVQAGGSLRLSCAVSGRGFSTYAMGWFRQAPGKEREFVGSANWKSGSIYVADSVKGRFTISNDNAQNTVYLQMSSLKPEDTAVYYCVARSFGTGQWDYWGQGTQVTVSS,> 4e+09 M⁻¹

# The next lines start with the values.
row,Ka,Binder
1,> 4e+09 M⁻¹,IgG-Fc-13 (VHH) VHH: QVQLQESGGGLVQAGGSLRLSCAASGDTFSTYAMGWFRQAPGKEREFVGRIVRGTESTYLIDSVKGRFAISRDNAQNTVYLQMTSLKPEDTAVYFCVARSFGAGQWDYWGQGTQVTVSS
2,> 4e+09 M⁻¹,IgG-Fc-11 (VHH) VHH: QVQLQESGGGLVQAGGSLRLSCAVSGRTFSTYAMGWFRQAPGKEREFVGSANWKSGSTYLVDSVKGRFTISGDNAHDTVHLQMTSLKPEDTGVYFCVARSFGTGQWDYWGQGTQVTVSS
3,> 4e+09 M⁻¹,IgG-Fc-12 (VHH) VHH: QVQLQESGGGLVQAGGSLRLSCAVSGRTFSTYAMGWFRQAPGKEREFVGSINFKSGSIYLADSVKGRFTISGDNAQNTAYLQMTSLKPEDTAVYLCVARSFGTGQWDYWGQGTQVTVSS
